A value given as a limit tells only on which side of the number the result lay.

B1: H7.5 Fab H-M73R (Fab, V domains shown)
VH: QVQLVQSGAEVKKPGASVKVSCKASGYTLTRYYFHWVRQAPGQGFEWMGIINPNGGGTSYAQKFGDRVIMTSDRSTSTIYMELSSLRSEDTAVYYCARDMPYYHDSGGPLFDLWGQGTLVTVSS
VL: EIVMTQSPSSLSASVGDRVTITCRPSQSISTFLNWYEQKPGKAPKLLIYDASSLQSGVPSRFSGSGSGTEFTLTISSLQPEDFATYYCQQSFSTPYTFGQGTRLEIK
B2: H7.5 Fab H-T57A (Fab, V domains shown)
VH: QVQLVQSGAEVKKPGASVKVSCKASGYTLTRYYFHWVRQAPGQGFEWMGIINPNGGGASYAQKFGDRVIMTSDMSTSTIYMELSSLRSEDTAVYYCARDMPYYHDSGGPLFDLWGQGTLVTVSS
VL: EIVMTQSPSSLSASVGDRVTITCRPSQSISTFLNWYEQKPGKAPKLLIYDASSLQSGVPSRFSGSGSGTEFTLTISSLQPEDFATYYCQQSFSTPYTFGQGTRLEIK
B3: H7.5 Fab L-Y96A (Fab, V domains shown)
VH: QVQLVQSGAEVKKPGASVKVSCKASGYTLTRYYFHWVRQAPGQGFEWMGIINPNGGGTSYAQKFGDRVIMTSDMSTSTIYMELSSLRSEDTAVYYCARDMPYYHDSGGPLFDLWGQGTLVTVSS
VL: EIVMTQSPSSLSASVGDRVTITCRPSQSISTFLNWYEQKPGKAPKLLIYDASSLQSGVPSRFSGSGSGTEFTLTISSLQPEDFATYYCQQSFSTPATFGQGTRLEIK
B4: H7.5 Fab H-S58W (Fab, V domains shown)
VH: QVQLVQSGAEVKKPGASVKVSCKASGYTLTRYYFHWVRQAPGQGFEWMGIINPNGGGTWYAQKFGDRVIMTSDMSTSTIYMELSSLRSEDTAVYYCARDMPYYHDSGGPLFDLWGQGTLVTVSS
VL: EIVMTQSPSSLSASVGDRVTITCRPSQSISTFLNWYEQKPGKAPKLLIYDASSLQSGVPSRFSGSGSGTEFTLTISSLQPEDFATYYCQQSFSTPYTFGQGTRLEIK
B5: H7.5 Fab L-T94Q (Fab, V domains shown)
VH: QVQLVQSGAEVKKPGASVKVSCKASGYTLTRYYFHWVRQAPGQGFEWMGIINPNGGGTSYAQKFGDRVIMTSDMSTSTIYMELSSLRSEDTAVYYCARDMPYYHDSGGPLFDLWGQGTLVTVSS
VL: EIVMTQSPSSLSASVGDRVTITCRPSQSISTFLNWYEQKPGKAPKLLIYDASSLQSGVPSRFSGSGSGTEFTLTISSLQPEDFATYYCQQSFSQPYTFGQGTRLEIK
B6: H7.5 Fab H-S74K (Fab, V domains shown)
VH: QVQLVQSGAEVKKPGASVKVSCKASGYTLTRYYFHWVRQAPGQGFEWMGIINPNGGGTSYAQKFGDRVIMTSDMKTSTIYMELSSLRSEDTAVYYCARDMPYYHDSGGPLFDLWGQGTLVTVSS
VL: EIVMTQSPSSLSASVGDRVTITCRPSQSISTFLNWYEQKPGKAPKLLIYDASSLQSGVPSRFSGSGSGTEFTLTISSLQPEDFATYYCQQSFSTPYTFGQGTRLEIK

In the experiment the target is H7 Sh2 HA (A/Shanghai/2/2013), ectodomain trimer, cleavage state not stated (influenza A virus (A/Shanghai/2/2013)). The experiment is described as follows: BLI.
B1 gave a dissociation constant Kd of less than 0.1 nM.
The molecule B2 yielded a Kd of 116 nM.
Turning to B3, the Kd was found to be 549 nM.
As for B4, the Kd is more than 1000 nM.
With B5, the Kd is more than 1000 nM.
In turn, B6 had a Kd of less than 0.1 nM.

The record behind these values is paper PMC6375650 (2019).
